Target: Gdown1 (in vitro, construct not stated) (UniProt P0CAP2)

Sequence of Gdown1 (in vitro, construct not stated) (from UniProt P0CAP2-1 1-368) (natural protein) (P0CAP2 whole entry): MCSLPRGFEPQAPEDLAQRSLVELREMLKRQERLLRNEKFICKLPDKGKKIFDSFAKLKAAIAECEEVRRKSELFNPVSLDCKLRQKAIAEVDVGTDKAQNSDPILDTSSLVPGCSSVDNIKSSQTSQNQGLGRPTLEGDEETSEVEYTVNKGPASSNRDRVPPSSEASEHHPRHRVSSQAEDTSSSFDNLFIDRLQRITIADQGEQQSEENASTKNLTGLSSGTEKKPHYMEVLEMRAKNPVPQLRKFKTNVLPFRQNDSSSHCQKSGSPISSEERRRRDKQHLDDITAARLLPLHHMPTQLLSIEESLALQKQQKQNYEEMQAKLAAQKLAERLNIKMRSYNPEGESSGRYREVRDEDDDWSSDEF

In the case of “Gdown1 (in vitro, construct not stated) (from UniProt P0CAP2-1 1-368) (natural protein)”, the stoichiometry N was 2.

Reference: publication PMC3259531
